Data from US20050064507.

Key:
[1] = tested on: T1, ubiquitin specific protease 8 peptide RARRDSLKKIEIW (SEQ ID NO:136)
T1 sequence: RARRDSLKKIEIW

[2] = tested on: T2, ribosomal protein S6 peptide AKRRRLSSLRASTSK (SEQ ID NO:120)
T2 sequence: AKRRRLSSLRASTSK

[3] = tested on: T3, ANK1 peptide AQIVKRASLKRGKQ (SEQ ID NO:90)
T3 sequence: AQIVKRASLKRGKQ

[4] = tested on: T4, gravin peptide KKFFTQGWAGWRKKTSFRKP (SEQ ID NO:154)
T4 sequence: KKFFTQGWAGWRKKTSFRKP

[5] = tested on: T5, splicing factor, arginine/serine-rich 4 peptide RSRSRSRSKSKDKRKSRKRS (SEQ ID NO:134)
T5 sequence: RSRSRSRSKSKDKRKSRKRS

[6] = tested on: T6, NR4A3 peptide KEVVRTDSLKGRRGR (SEQ ID NO:109)
T6 sequence: KEVVRTDSLKGRRGR

[7] = tested on: T7, peptide EKIKRSSLKKVDSLKK (SEQ ID NO:24)
T7 sequence: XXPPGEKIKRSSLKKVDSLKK

[8] = tested on: T8, cytohesin-2 peptide VDPFYEMLAARKKRISVKKK (SEQ ID NO:150)
T8 sequence: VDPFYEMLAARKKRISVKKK

[9] = tested on: T9, cyclophilin G peptide TEEKSKKRKKKHRKNSRKHK (SEQ ID NO:165)
T9 sequence: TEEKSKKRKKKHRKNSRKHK

[10] = tested on: T10, peptide ALRAPKPTLRYFTTERF (SEQ ID NO:64)
T10 sequence: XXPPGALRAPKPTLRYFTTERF

[11] = tested on: T11, p47phox peptide QAQRQIKRGAPPRRSSIRNA (SEQ ID NO:146)
T11 sequence: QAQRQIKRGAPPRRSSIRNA

[12] = tested on: T12, peptide LLGSGKVTDRKAL (SEQ ID NO:39)
T12 sequence: XXPPGLLGSGKVTDRKAL

[13] = tested on: T13, kinesin 3C peptide LEKRGMLGKRPRRKSSRRKK (SEQ ID NO:133)
T13 sequence: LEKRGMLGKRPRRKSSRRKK

[14] = tested on: T14, peptide GLLDRKGSWKKLDDM (SEQ ID NO:35)
T14 sequence: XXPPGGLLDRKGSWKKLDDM

[15] = tested on: T15, CACNA1C peptide RGFLRSASLGRRASFHLE (SEQ ID NO:96)
T15 sequence: RGFLRSASLGRRASFHLE

[16] = tested on: T16, peptide QRQERIFSKRRGQDF (SEQ ID NO:63)
T16 sequence: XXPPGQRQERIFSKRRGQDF

[17] = tested on: T17, peptide ENLRRVATDRRHLGH (SEQ ID NO:50)
T17 sequence: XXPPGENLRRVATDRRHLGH

[18] = tested on: T18, peptide AWVTVHEKKSSRKSEYL (SEQ ID NO:43)
T18 sequence: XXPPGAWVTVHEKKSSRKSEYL

[19] = tested on: T19, peptide EEAEHKATKARLADK (SEQ ID NO:75)
T19 sequence: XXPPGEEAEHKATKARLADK

[20] = tested on: T20, AF15q14 peptide GFLNEPLSSKSQRRKSLKLK (SEQ ID NO:132)
T20 sequence: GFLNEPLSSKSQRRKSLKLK

[21] = tested on: T21, NF1 peptide AGSFKRNSIKKIV (SEQ ID NO:102)
T21 sequence: AGSFKRNSIKKIV

[22] = tested on: T22, MARCKS peptide KKKKKRFSFKKSFKL (SEQ ID NO:80)
T22 sequence: KKKKKRFSFKKSFKL

[23] = tested on: T23, peptide RQRKRKLSFRRRTDKD (SEQ ID NO:5)
T23 sequence: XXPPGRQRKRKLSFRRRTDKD

[24] = tested on: T24, EBNA1BP2 peptide KRPGKKGSNKRPGKR (SEQ ID NO:112)
T24 sequence: KRPGKKGSNKRPGKR

[25] = tested on: T25, SPTBN4 peptide EGGDRRASGRRK (SEQ ID NO:110)
T25 sequence: EGGDRRASGRRK

[26] = tested on: T26, AKAP12 peptide AGWRKKTSFRKPKED (SEQ ID NO:99)
T26 sequence: AGWRKKTSFRKPKED

[27] = tested on: T27, peptide QKRHARVTVKYDRRE (SEQ ID NO:23)
T27 sequence: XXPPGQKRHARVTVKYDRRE

[28] = tested on: T28, beta adducin peptide PSKSPSKKKKKFRTPSFLKK (SEQ ID NO:137)
T28 sequence: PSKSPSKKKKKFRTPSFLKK

[29] = tested on: T29, titin peptide PFEVVWYKDKRQLRSSKKYK (SEQ ID NO:160)
T29 sequence: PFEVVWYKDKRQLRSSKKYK

[30] = tested on: T30, MARCKS peptide KKRFSFKKSFKLSGFSFKKN (SEQ ID NO:123)
T30 sequence: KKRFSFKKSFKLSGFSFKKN

[31] = tested on: T31, peptide AARKKRISVKKKQEQ (SEQ ID NO:8)
T31 sequence: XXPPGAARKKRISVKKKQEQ

[32] = tested on: T32, MARCKS peptide KKRFSFKKSFKLSGFSFKKN (SEQ ID NO:119)
T32 sequence: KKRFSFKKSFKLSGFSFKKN

[33] = tested on: T33, peptide QPEGLRSLKKPDRKKR (SEQ ID NO:42)
T33 sequence: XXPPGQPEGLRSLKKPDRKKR

[34] = tested on: T34, MacMARCKS peptide KKKFSFKKPFKLSGLSFKRN (SEQ ID NO:162)
T34 sequence: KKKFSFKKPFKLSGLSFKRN

[35] = tested on: T35, peptide PRLIRRGSKKRPAR (SEQ ID NO:6)
T35 sequence: XXPPGPRLIRRGSKKRPAR

[36] = tested on: T36, CREB1 peptide EILSRRPSYRKILND (SEQ ID NO:106)
T36 sequence: EILSRRPSYRKILND

[37] = tested on: T37, NF1 peptide SQVQKQRSAGSFKRNSIKKI (SEQ ID NO:127)
T37 sequence: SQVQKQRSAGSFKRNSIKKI

[38] = tested on: T38, peptide FVHQASFKFGQGD (SEQ ID NO:41)
T38 sequence: XXPPGFVHQASFKFGQGD

[39] = tested on: T39, peptide HKHSPEKRGSERKEG (SEQ ID NO:52)
T39 sequence: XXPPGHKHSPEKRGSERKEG

[40] = tested on: T40, peptide AGWRKKTSFRKPKED (SEQ ID NO:17)
T40 sequence: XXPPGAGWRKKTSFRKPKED

Substance: PKC-delta
- in vitro phosphorylation, 1 uM peptide (% of best substrate) [1]: 41
- in vitro phosphorylation, 10 uM peptide (% of best substrate) [1]: 23
- in vitro phosphorylation, 1 uM peptide (% of best substrate) [2]: 64
- in vitro phosphorylation, 10 uM peptide (% of best substrate) [2]: 32
- in vitro phosphorylation (% of best substrate) [3]: 32
- in vitro phosphorylation, 1 uM peptide (% of best substrate) [4]: 26
- in vitro phosphorylation, 10 uM peptide (% of best substrate) [4]: 14
- in vitro phosphorylation, 1 uM peptide (% of best substrate) [5]: 44
- in vitro phosphorylation, 10 uM peptide (% of best substrate) [5]: 16
- in vitro phosphorylation (% of best substrate) [6]: 7
- in vitro phosphorylation (% of best substrate) [7]: 10
- in vitro phosphorylation, 1 uM peptide (% of best substrate) [8]: 34
- in vitro phosphorylation, 10 uM peptide (% of best substrate) [8]: 20
- in vitro phosphorylation, 1 uM peptide (% of best substrate) [9]: 25
- in vitro phosphorylation, 10 uM peptide (% of best substrate) [9]: 19
- in vitro phosphorylation (% of best substrate) [10]: 1
- in vitro phosphorylation, 1 uM peptide (% of best substrate) [11]: 33
- in vitro phosphorylation, 10 uM peptide (% of best substrate) [11]: 14
- in vitro phosphorylation (% of best substrate) [12]: 3
- in vitro phosphorylation, 1 uM peptide (% of best substrate) [13]: 46
- in vitro phosphorylation, 10 uM peptide (% of best substrate) [13]: 52
- in vitro phosphorylation (% of best substrate) [14]: 4
- in vitro phosphorylation (% of best substrate) [15]: 18
- in vitro phosphorylation (% of best substrate) [16]: 1
- in vitro phosphorylation (% of best substrate) [17]: 2
- in vitro phosphorylation (% of best substrate) [18]: 3
- in vitro phosphorylation (% of best substrate) [19]: 0
- in vitro phosphorylation, 1 uM peptide (% of best substrate) [20]: 41
- in vitro phosphorylation, 10 uM peptide (% of best substrate) [20]: 47
- in vitro phosphorylation (% of best substrate) [21]: 14
- in vitro phosphorylation (% of best substrate) [22]: 24
- in vitro phosphorylation (% of best substrate) [23]: 42
- in vitro phosphorylation (% of best substrate) [24]: 8
- in vitro phosphorylation (% of best substrate) [25]: 5
- in vitro phosphorylation (% of best substrate) [26]: 17
- in vitro phosphorylation (% of best substrate) [27]: 10
- in vitro phosphorylation, 1 uM peptide (% of best substrate) [28]: 38
- in vitro phosphorylation, 10 uM peptide (% of best substrate) [28]: 16
- in vitro phosphorylation, 1 uM peptide (% of best substrate) [29]: 25
- in vitro phosphorylation, 10 uM peptide (% of best substrate) [29]: 31
- in vitro phosphorylation, 1 uM peptide (% of best substrate) [30]: 45
- in vitro phosphorylation, 10 uM peptide (% of best substrate) [30]: 22
- in vitro phosphorylation (% of best substrate) [31]: 35
- in vitro phosphorylation, 1 uM peptide (% of best substrate) [32]: 42
- in vitro phosphorylation, 10 uM peptide (% of best substrate) [32]: 16
- in vitro phosphorylation (% of best substrate) [33]: 3
- in vitro phosphorylation, 1 uM peptide (% of best substrate) [34]: 21
- in vitro phosphorylation, 10 uM peptide (% of best substrate) [34]: 13
- in vitro phosphorylation (% of best substrate) [35]: 40
- in vitro phosphorylation (% of best substrate) [36]: 9
- in vitro phosphorylation, 1 uM peptide (% of best substrate) [37]: 52
- in vitro phosphorylation, 10 uM peptide (% of best substrate) [37]: 33
- in vitro phosphorylation (% of best substrate) [38]: 3
- in vitro phosphorylation (% of best substrate) [39]: 2
- in vitro phosphorylation (% of best substrate) [40]: 17
